Assay results as given in publication PMC3100304, “The Interplay between NF-kappaB and E2F1 Coordinately Regulates Inflammation and Metabolism in Human Cardiac Cells” (PLoS ONE, 2011).

Target: T1, p65 subunit of NF-κB (human (endogenous in AC16), UniProt Q04206 1-551)
T1 construct: p65 subunit of NF-κB (RelA), endogenous in human cardiac AC16 cells; precipitated with an anti-p65 antibody; also called RelA/p65; source: endogenous, human cardiac AC16 cells, nuclear extract
Test: co-IP; AC16 nuclear extracts (25 µg) precipitated with 4 µg anti-p65 and protein A-agarose at 4°C, blotted with anti-E2F1; cells with or without TNF-α (100 ng/ml, 24 h), parthenolide (10 µmol/L), siRNA to p65, or LacZ- or E2F1-carrying plasmids
Settings: partners not purified

T1 sequence (Q04206 whole entry): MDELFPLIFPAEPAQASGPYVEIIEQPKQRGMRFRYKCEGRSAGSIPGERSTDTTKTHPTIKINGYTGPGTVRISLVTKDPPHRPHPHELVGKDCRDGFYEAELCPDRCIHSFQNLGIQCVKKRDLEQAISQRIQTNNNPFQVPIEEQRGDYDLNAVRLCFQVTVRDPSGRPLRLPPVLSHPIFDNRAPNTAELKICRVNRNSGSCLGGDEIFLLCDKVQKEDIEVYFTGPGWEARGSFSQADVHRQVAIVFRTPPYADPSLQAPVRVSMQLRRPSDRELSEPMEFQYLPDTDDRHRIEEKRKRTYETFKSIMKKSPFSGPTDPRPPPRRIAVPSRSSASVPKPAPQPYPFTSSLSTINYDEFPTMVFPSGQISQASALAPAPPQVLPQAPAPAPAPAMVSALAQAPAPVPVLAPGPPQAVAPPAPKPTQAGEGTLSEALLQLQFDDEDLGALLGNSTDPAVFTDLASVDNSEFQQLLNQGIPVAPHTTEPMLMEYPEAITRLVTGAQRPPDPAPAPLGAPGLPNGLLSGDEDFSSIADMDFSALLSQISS

fold of p65-E2F1 association vs. LacZ: 2 fold
fold of p65-E2F1 association vs. LacZ (with TNF-α): 4 fold
B1: E2F1 overexpressed from the pSG5L/E2F1 construct (natural protein)
chain: not shown
notes: human E2F1 expressed from the pSG5L/E2F1 construct (human gene, Addgene plasmid 10736); The transfected cells also hold endogenous E2F1; source: AC16 cells, transfected (Lipofectamine 2000), in nuclear extract
